Measurements: the DeepSol protein solubility set

Test: soluble on expression in E. coli; label from the status in PepcDB or PDB records

With “MNLTQMLPDLDDVPESLLDEAIFDSFLSWTRSKDLALYPAQEEAALGILAGDNVILATPTGSGKSMVAIAAHFIAMARGQRSFYTAPIKALVNEKFFALCDIFGPESVGMMTGDATVNGSAPIICATAEIVANIALRDGTDADIDQVVMDEFHYYSEPGRGWAWQVPLLELPRTQFLLMSATLGDTTFIQKDLSDRTGRTTNLVAGATRPVPLQFSYVYTPVHETIQDLLDTNNAPIYVVHFTQREAIERAQSLTSMTVIDSETKEKIATEIGNFKFTTTFGHTLSKLLRKGIGVHHAGMLPKYRRLVEKLSQTGLLKIICGTDTLGVGINVPIRTVLFTGLAKFDGSKQRILASREFHQIAGRAGRAGYDTVGNVVIEAPEHEIENWRLRQRAGSDLKKLKKLRKKSARDGEVTWGEKTYERLSEAEPENLQSQFRISNSMLLNVIARSGDAYVHLKHLLRTNHDTRDKQNKDILTALELFRGLVAAGIVEKLDSPDSTGRKYVITEDLRRDFALNQPLAPFALAALEILDKESTSYALDVISVFESILEDPRVVLIAQQKQARGEEIAALKAEGVEYTERMNIVEEISWPKPLEEILEPAFDTYCSGHPWAKEFTLSPKSIVRDMIEHGMTFSDFIATYGLSRSEGVVLHYLTDAWKTLSHSVPTEYVSDELEEIIEWLGELVRQVDSSLIDEWANMADPDAPISQDTVDQQRAFGVEDPNAITANSRAFAVMVRNLMFRMVQLFAAEEEEKLEALTDYLDEQPDFSEALDVYFDEYSDLDVGPDARGREYFLLKKDGRIWSVRQIIKDPNDDRAFSFAATVDLNASDAADEVRFAKFSIDS” as the sequence, how does the “soluble on expression in E. coli” value read?
Its value is “not soluble”.

Which “soluble on expression in E. coli” value does the source give for “LDFATLPPEINSARMYSGAGSAPMLAAASAWHGLSAELRASALSYSSVLSTLTGEEWHGPASASMTAAAAPYVAWMSVTAVRAEQAGAQAEAAAAAYEAAFAATVPPPVIEANRAQLMALIATNVLGQNAPAIAATEAQYAEMWSQDAMAMYGYAGASAAATQLTPFTEPVQTTNASGLAAQSAAIAHATGASAGAQQTTLSQLIAAIPSVLQGLSSSTAATFASGPSGLLGIVGSGSSWLDKLWALLDPNSNFWNTIASSGLFLPSNTIAPFLGLLGGVAAADAAGDVLGEATSGGLGGALVAPLGSAGGLGGTVAAGLGNAATVGTLSVPPSWTAAAPLASPLGSALGGTPMVAPPPAVAAGMPGMPFGTMGGQGFGRAVPQYGFRPNFVARPPAAG” here?
Its value is “not soluble”.

With “MAHHHHHHMRQGRVRTESTVQRFAKTPIGEGFDLWDRDYLLGAMRLFLFKAETAPPFQVGPCMDATGEILVQLEELEDAREQFSIAAEKYLITQQQQLAKIMEIKALECERGPQAALEELTAFLKKETASTNATAVPAPITRAYAYQAELLLKTATPETPELFTEAVETAKLACNHAWDRVHMGYVVLGDALKASGCPDEARKAYSEAFETNRNCITALERHIEVLKEYIAESNDDMRIEALRKELLPLLESAISLHPRPTLIREKAFLLSETLGDAAALEFLDPLICNPPPEEADAAGNVGGRTVATLLKAKAAILADGGKMQEALEVAEAALKESPSDEEAKAIVAELRESL” as the sequence, how does the “soluble on expression in E. coli” value read?
The value was “soluble”.

With “MSLNENLQELIPTKLAAAIANPLFPAVDSQLRSGRHIGQEYLDNFAFLADFQNELDMFYRRYNVELIRAPEGFFYLRPKATTLIARSVLSELEMLVGKVLCYLYLSPERLAQQGIFSVQEVYDELLNLADESKLLKAVNQRSSGSDLDKQKLAEKVRAAVNRLRRLGMIHTVGEQNSGKFTISESVFRFGAEVRSGDDPREAQLRLIRDGEAATPDSLSQEKSAVKNDEEIEDELDEGLGEEEEGHHHHHH” as the sequence, how does the “soluble on expression in E. coli” value read?
Its value is “soluble”.

With “MGSDKIHHHHHHMSDTLLEIDNLTVDFQLPTGTVSAVKHVSFSLQPGETLALVGESGSGKSVSSTAAMRLLPELARTSGAIRFKGEDLLRATPRRMRHIRGNAISMIFQEPMTSLNPLHRIGRQIAEVLEKHRGLKGRQARTKIVELLEQVGIPDPARRIDSYPHELSGGQRQRVMIAMALACEPELLIADEPTTALDVTVQAQILALLKDLQARYGMAILFITHDLGIVRHFADRVCVMRRGELIESGPTAELFDTPRDDYTRMLIDADPRGRKTPVDPSMPVLFEAKDLQVRFTLKKRLFRASEHFEAVRGIDLTIRRGQTVGIVGESGSGKSTLGRALLRLLDSRGEIRFDGQDIAALDTAGMRPLRSRLQVVFQDPFGSLSPRMTVGEVISEGLRVHHPTLDRRQREARVIEALEDVALDPAMRNRYPHEFSGGQRQRIAIARALVLKPEFLLLDEPTSALDRSVQVTVIDLLRDLQQKHGLTYLFISHDLSVVRALADTVLVMKAGQVVEQGATEEIFANPREHYTRELMRAAFVDAA” as the sequence, how does the “soluble on expression in E. coli” value read?
The value was “not soluble”.

Which “soluble on expression in E. coli” value does the source give for “MAHHHHHHMEAFAITPLAEDDTTFVKDAQQFLAVIADMQREAEQRRCLLDDLRQKEAAAEMELEKCLAVREAVVARMAHTKAEGLELQSEYKALTTQQRAVEAEVLELRRQKSHWKKVLQEFQGSSSSSHLLGSGNTDGATVKSASSLDRALHAWSQLPHGSMFLKELKKTLTEFVAELAVNAGSNTNDNSNTTHNGTSTEYTTAFLDPSSVFPHLPPLSKVEEAIILLIPFSA” here?
The value was “not soluble”.

Which “soluble on expression in E. coli” value does the source give for “MDQDYERRLLRQIVIQNENTMPRVTEMRRTLTPASSPVSSPSKHGDRFIPSRAGANWSVNFHRINENEKSPSQNRKAKDATSDNGKDGLAYSALLKNELLGAGIEKVQDPQTEDRRLQPSTPEKKGLFTYSLSTKRSSPDDGNDVSPYSLSPVSNKSQKLLRSPRKPTRKISKIPFKVLDAPELQDDFYLNLVDWSSLNVLSVGLGTCVYLWSACTSQVTRLCDLSVEGDSVTSVGWSERGNLVAVGTHKGFVQIWDAAAGKKLSMLEGHTARVGALAWNAEQLSSGSRDRMILQRDIRTPPLQSERRLQGHRQEVCGLKWSTDHQLLASGGNDNKLLVWNHSSLSPVQQYTEHLAAVKAIAWSPHQHGLLASGGGTADRCIRFWNTLTGQPLQCIDTGSQVCNLAWSKHANELVSTHGYSQNQILVWKYPSLTQVAKLTGHSYRVLYLAMSPDGEAIVTGAGDETLRFWNVFSKTRSTKESVSVLNLFTRIR” here?
Its value is “soluble”.

Which “soluble on expression in E. coli” value does the source give for “MGSDKIHHHHHHMTSYRIGIDVGGTHTDAVLLDETNQVMAETKAPTTEDVSRGIYQAMRDVIESAQVDRTRIDYAMLGTTHCTNAIVERKRLNTVGIIRIGAPATLAVKPLIGVPDDLRTLLGKHVYIVSGGHEFDGREIASLDEDHLYEIAHEIKGAVDSVAITSVFSPVSDNHEVRAAEIIREILGEAIPISLSKEIGSVGLLERENATILNASVVNVAQATAEGFVAALKEEGIEANVFFGQNDGTLMSVEYAKKYPILTIACGPTNSLRGASFLTGKENAIVVDVGGTTTDIGVLAQSFPRESSLAVEIGGARTNFRMPDLVSIGLGGGTIIRVNETDGTFTIGPESVGYRLPEKGLVFGGDTLTTTDVVVALGRANIGDRSKVAHLDKELLRRIYDRMVEMVEMAVDQMKTSSGDAPVILVGGGSILLPDQLRGASEVMKPEHLGVANAIGAAIAQVSGQIERVFSLDERGREQTLAYAKDLAREEAIKAGADPSDLTIVDVEDVPLAYLPGNATRIRVKAAGPLGSASAEQYEKGNVIP” here?
The value was “not soluble”.

For “MGHHHHHHGGHMSLITAEECRTYKEFVDLYQSYLYPLLGARLSRMYSPKNKVIIDMGTGPGYLSIQLAKRTNAHVHAVDINPAMHEIAQEEAKKSGVSSLISFDLEDVHHLSYADQYADFIVSYSCLHHWEDVVKGLKECYRVLAPGGKIVILDTFNPQGSHLEIMRKQIKEPEYFRFVREAFEESYSFEDIHQFVQDAGIPNYSLETFHFLPEDFIESLDELEDAPLWEQNDQSTDHEIESVTWMLTIEKEKEGALEGGS”, which “soluble on expression in E. coli” value is on record?
The value was “soluble”.

For “MMLRSHPNTLHITKLSHSAIHQLAPSFAQLPHTNHADGQYRLRRYSVIRFIDGQVVELDKHDFMQTDQINHFQGNVVRRFEPLLSTTLKSDGMRELCALFMEANTLPDGQEIEIHQMRIAAVFDETLVAPEGVHQDGFDHIAIVGIDRYNIVGGEIMLYLSSHEAPFFRKVLENGEVAMLADSQLWHNACPIRTVDHQQEGHMDVFVLTAKDGRHALHS”, which “soluble on expression in E. coli” value is on record?
The value was “not soluble”.

For “MAHHHHHHMVLPLPKLIQSNEGRVLYHVTNHPIRTIKKKIEGFFKYESLDNLNSEISVRQNFDELFVPLTHPARNIKDTFYLSENYVKHFSTLHNNLYTQLENTNGIYKYYLVTKFVHHHNILLKRTHMTAHLPDLLRRNYKNVIYTGSVYRRDEIDRFHFPIFHQTDGFLIRPDNFDVETDLKKNLEQLIRYLFDASDVQMKWEDNTSFPFTDPSYELYIRGESSKEIRTTGDDIGGESRWVEVLGCGKIKKEVIAMAMHAEDIRQIIEDEIARHDRGLLDELQSIETAVNEAAVNEAAVNEGATNEGAVNEGATNEAVARKSNVEWIYPNVPTPKDILDKLCTTTLNNRIEAQMNKFLKTIRYQGWAFGIGLERLAMLLYHIQDIRLFWSNDNRFIDQFEEGVITTFHPFSNFPPVEKDISFYITSQFKEDLFFQICRDVASENIEQVKKIDSYHNPKNNQTSVCYRITYRSHTQNLTHKTVNEMQSKIVQMLVKQCAVTIR”, which “soluble on expression in E. coli” value is on record?
The value was “not soluble”.

With “MGSDKIHHHHHHEHNRSAVTTEGGYYDTEKGFESLINSCYTPLRFWGGKSAAMAFSETGTDILAPGGGCDYPAIVSYQNDFDGTNPISKEYYDRFYKAINFCNTAIYHVKNVPFSDKTLTSKREAEVRFLRAYYYWILVETFGDTYYTDQPSESIVMAPRKTSVAEIYTHIFEDLDFCMDSRLSVAQADGGRVTMWAAKALKARLLLTRASELNDKALYEQAYTLAKEVIDNGPFELSKDFASVFDMENSDGNGNKEVIWYIDYSSTNQLYNQEMDNDIIRSGGNHTHLIFCMKYDDQPGMVRSIEYGRPFNHYMPTRYLLDCYDENIDQRFEVTFRSLWKANGGKTGDNYPYMVQGDTAIWITKDVVPQVKRQWAKGRYQILDRTDIYHEDGSVKSQKQCMPISKFEDPTRATVNEDRGTRDAFIIRVAEMYLIVAEAGAKAGKADALAYMNILRAQRAKAGKEEAMKVAQSDIEDIDFILDERARELVGEQLRWFDLKRMGSEIFIRRIKSGNPDAGKNVKAYHMLRPFPQTLLDAITNKDEFLQNEGYK” as the sequence, how does the “soluble on expression in E. coli” value read?
The value was “not soluble”.

For “MGSDKIHHHHHHVFIGIETTDPEGLKETGKVQNLREDPLTAVRRIYAHGIDVLGGFIIGFDHDTMATFEHQYRFITDAGIQSAMIGLLMALPRTPLHERMQREGRLLPLDGHADNTCLTTNIAPRSMNIDAMVAAYQELYRRLLTGPEIGRRIRNKMKYLQAPVYGSGYSMGQRAGILARLMVRGIGAGGLSTLVAFLRSFPFLTPSRIPMVISDWIIGLSMKAFAETSLLGRSTQGLNNAATGISTGLRDP”, which “soluble on expression in E. coli” value is on record?
The value was “not soluble”.

For “DPTAQSLQDISDEQVLVLFEQMLVDMNLNEEKQQPLREKDIVIKREMVSQYLHTSKAGMNQKESSRSAMMYIQELRSGLRDMHLLSCLESLRVSLTSHPVSWVQTFGAEGLASLLDILKRLHDEKEETSGNYDSRNQHEIIRCLKAFMNNKFGIKTMLETEEGILLLVRAMDPAVPNMMIDAAKLLSALCILPQPEDMNERVLEAMTERAEMDEVERFQPLLDGLKSGTSIALKVGCLQLINALITPAEELDFRVHIRSELMRLGLHQVLQELREIENEDMKVQLCVFDEQGDEDFFDLKGRLDDIRMEMDDFGEVFQIILNTVKDSKAEPHFLSILQHLLLVRNDYEARPQYYKLIEECVSQIVLHKNGTDPDFKCRHLQID”, which “soluble on expression in E. coli” value is on record?
Its value is “soluble”.

For “PKQVGNAQHLYDNYDLVPAMIAEVNPRDMVVMALVNTNVDPTLPPRWALATRNITAIPGIEGDTRKVGTRIPAVAVTGQRSVGNQDSWDQISPMPIAWATPDSSVIARAESTIPSEQWTTLSKNLNKLDQVRETKFDLLEL”, which “soluble on expression in E. coli” value is on record?
Its value is “soluble”.

With “MRCVGVGNRDFVEGVSGGAWVDLVLEHGGCVTTMAQGKPTLDFELTKTTAKEVALLRTYCIEASISNITTATRCPTQGEPYLKEEQDQQYICRRDVVDRGWGNGCGLFGKGGVVTCAKFSCSGKITGNLVQIENLEYTVVVTVHNGDTHAVGNDTSNHGVTATITPRSPSVEVKLPDYGELTLDCEPRSGIDFNEMILMKMKKKTWLVHKQWFLDLPLPWTAGADTSEVHWNYKERMVTFKVPHAKRQDVTVLGSQEGAMHSALAGATEVDSGDGNHMFAGHLKCKVRMEKLRIKGMSYTMCPGKFSIDKEMAETQHGTTVVKVKYEGAGAPCKVPIEIRDVNKEKVVGRIISSTPLAENTNSATNIELEPPFGDSYIVIGVGNSALTLHWFRKGSSIGKSLEHHHHHHHH” as the sequence, how does the “soluble on expression in E. coli” value read?
The value was “not soluble”.
